Source: patent publication US9567641B2, “Combination therapy for the treatment of cancer using an anti-C-met antibody” (SAMSUNG ELECTRONICS CO., LTD., priority 2013, dated 2017)

Columns and labels:
Type in all cases: cell-based
[1] = test system: HT29 colorectal cancer cell line; experiment: Cell viability, CellTiter Glo, combination with L3-1Y/IgG2 antibody; conditions: L3-1Y/IgG2 antibody alone (negative control siRNA), 0-2 ug/ml, 72 h
Description: The efficacy of the combination administration of FGFR3 siRNA and L3-1Y/IgG2 antibody was examined in a colorectal cancer cell line on which the anti-c-Met antibody has no effects. For this, HT29 (ATCC, HTB-38) cells were used. As a control group, All Negative control siRNA (Qiagen, cat. no. 1027281) was used, and as a target siRNA, a mixture of two kinds of siRNAs (see Table 7) that had effects during the screening was used. Transfection was carried out by the same procedures as Example 3.1 and after 24 hours, the cultured cells were treated with L3-1Y/IgG2 antibody at 0 ug/ml, 0.016 ug/ml, 0.08 ug/ml, 0.4 ug/ml, and 2 ug/ml, respectively.
72 hours later after the treatment, 100 uL of CellTiter Glo solution (Promega, G7572) was added to each well, which was allowed to stay at a room temperature for 30 min. The number of cells was counted via luminescence signals, which were recorded using Envision 2104 Multi-label Reader (Perkin Elmer).

[2] = test system: EBC1 lung cancer cell line; experiment: Cell viability, CellTiter Blue, combination with L3-1Y/IgG2 antibody; conditions: for concentration at which the L3-1Y/IgG2 antibody showed the maximized efficacy: 5 days
Description: The efficacy of the combination administration of RAF1 siRNA and L3-1Y/IgG2 antibody was examined in lung cancer cell line on which the anti-c-Met antibody has an effect. For this, EBC1 (JCRB, JCRB0820) cells were used. As a control group, All Negative control siRNA (Qiagen, cat. no. 1027281) was used, and as a target siRNA, a mixture of two kinds of siRNAs (see Table 7) that had effects during the screening was used. Transfection was carried out by the same procedures as Example 3.1 and after 24 hours, the cultured cells were treated with L3-1Y/IgG2 antibody at 0 ug/ml, 0.016 ug/ml, 0.08 ug/ml, 0.4 ug/ml, or 2 ug/ml. After 5 days of treatment, for cell number counting, 20 ul of a diluting solution of CellTiter Blue (Promega, G8081) and HBSS at 1:1 was added to each well, which was incubated at 37° C. for 4 hours. Then, the number of cells was counted via fluorescence signals (560/590 nm), which were measured using Envision 2104 Multi-label Reader (Perkin Elmer).

[3] = test system: MKN45 gastric cancer cell line with acquired resistance against L3-1Y/IgG2 antibody; experiment: Cell viability, CellTiter Glo, resistance-acquired cell line
Description: To see whether the treatment RAF1 siRNA can overcome resistance acquired due to the repetitive treatment of an antibody, tests were carried out using MKN45 gastric cancer cell line which had been treated by L3-1Y/IgG2 antibody for 3 months or longer and acquired resistance against it. The resistance-acquired MKN45 gastric cancer cell line was prepared as follows: MKN45 cells (JCRB, JCRB0254) were treated with L3-1Y/IgG2 antibody in amounts being increased over 3 months or longer. The amount of L3-1Y/IgG2 antibody to be treated started from its initial treatment concentration of 1 ug/ml and was increased up to 10 ug/ml until resistance occurred. To confirm the acquisition of L3-1Y/IgG2 antibody resistance, the resistance-acquired clones were treated or not treated with L3-1Y/IgG2 antibody and then incubated, followed by CTG assays.
As a control group, All Negative control siRNA (Qiagen, cat. no. 1027281) was used, and as a target siRNA, a mixture of two kinds of siRNAs (see Table 7) that had effects during the screening was used. […]
(§1) 5000 cells of MKN45 cells which have acquired resistance against L3-1Y/IgG2 antibody were seeded onto a 96-well plate, and 24 hours after, the plate was treated with L3-1Y/IgG2 antibody and an ITGB3 inhibitor, cilengitide (Merck KGaA, EMD 121974). 72 hours later after the treatment, a change in the number of cells was measured using CellTiter Glo assay. The MKN45 cells which have acquired resistance against L3-1Y/IgG2 antibody were prepared referring to Example 4.3. Cilengitide was treated at a fixed concentration of 10 uM, and the L3-1Y/IgG2 antibody was treated by ⅕ dilution each time starting from 2 ug/ml. For comparison, the same test was conducted using L3-1Y/IgG2 antibody alone.
as §1, with “AKT” for “ITGB3”, “MK-2206” for “cilengitide”, “& Co Inc).” for “KGaA, EMD 121974).”, “MK-2206” for “Cilengitide”, “5” for “10”
To verify whether or not the resistance acquired by repetitive administration of anti-c-Met antibody can be overcome by BCL2L1 inhibition, L3-1Y/IgG2 antibody resistance acquired MKN45 cells, where the resistance against L3-1Y/IgG2 antibody is acquired by treating MKN45 gastric cancer cells (JCRB, JCRB0254) with the L3-1Y/IgG2 antibody for at least 3 months, were used. The L3-1Y/IgG2 antibody resistance acquired MKN45 gastric cancer cells were prepared referring to Example 4.3. […]

[4] = test system: L3-1Y/IgG2 antibody resistance acquired EBC1 lung cancer cells; experiment: as above; conditions: L3-1Y/IgG2 antibody alone
Description: To verify whether or not the resistance acquired by repetitive administration of anti-c-Met antibody can be overcome by BCL2L1 inhibition, L3-1Y/IgG2 antibody resistance acquired EBC1 cells, where the resistance against L3-1Y/IgG2 antibody is acquired by treating EBC1 lung cancer cells (JCRB, JCRB0820) with the L3-1Y/IgG2 antibody for at least 3 months, were used. The L3-1Y/IgG2 antibody resistance acquired EBC1 lung cancer cells were prepared referring to Example 4.3.
5000 cells of the L3-1Y/IgG2 antibody resistance acquired EBC1 cells were seeded onto a 96-well plate and 24 hours after, the plate was treated with a BCL2 family inhibitor, ABT-263 (Abbott Laboratories) and 72 hours later after the antibody treatment, a change in the number of cells was measured using CellTiter Glo assay. ABT-263 was treated at a fixed concentration of 0.5 uM, and the L3-1Y/IgG2 antibody was treated by ⅕ dilution each time starting from 2 ug/ml.

B1: L3-1Y/IgG2: anti-c-Met antibody: huAbF46-H4-A1 heavy chain variable region, human IgG2 hinge and constant region, kappa light chain with H36Y (antibody)
heavy: EVQLVESGGGLVQPGGSLRLSCAASGFTFTDYYMSWVRQAPGKGLEWLGFIRNKANGYTTEYSASVKGRFTISRDNSKNTLYLQMNSLRAEDTAVYYCARDNWFAYWGQGTLVTVSSASTKGPSVFPLAPCSRSTSESTAALGCLVKDYFPEPVTVSWNSGALTSGVHTFPAVLQSSGLYSLSSVVTVPSSNFGTQTYTCNVDHKPSNTKVDKTVERKCCVECPPCPAPPVAGPSVFLFPPKPKDTLMISRTPEVTCVVVDVSHEDPEVQFNWYVDGVEVHNAKTKPREEQFNSTFRVVSVLTVVHQDWLNGKEYKCKVSNKGLPAPIEKTISKTKGQPREPQVYTLPPSREEMTKNQVSLTCLVKGFYPSDIAVEWESNGQPENNYKTTPPMLDSDGSFFLYSKLTVDKSRWQQGNVFSCSVMHEALHNHYTQKSLSLSPGK
light: DIQMTQSPSSLSASVGDRVTITCKSSQSLLASGNQNNYLAWYQQKPGKAPKMLIIWASTRVSGVPSRFSGSGSGTDFTLTISSLQPEDFATYYCQQSYSRPYTFGQGTKVEIKRTVAAPSVFIFPPSDEQLKSGTASVVCLLNNFYPREAKVQWKVDNALQSGNSQESVTEQDSKDSTYSLSSTLTLSKADYEKHKVYACEVTHQGLSSPVTKSFNRGEC
[1]
  cancer cell growth inhibitory efficacy (cell viability): did not occur
[2]; co-treated with RAF1 siRNA
  concentration at which the L3-1Y/IgG2 antibody showed the maximized efficacy: 0.016 µg/mL
[2]; with versus without RAF1 siRNA
  decrease of the concentration of maximized efficacy by RAF1 siRNA co-treatment: ⅕
[2]; without RAF1 siRNA (negative control siRNA)
  concentration at which the L3-1Y/IgG2 antibody showed the maximized efficacy: 0.08 µg/mL
[3]; L3-1Y/IgG2 antibody alone (1/5 dilutions from 2 ug/ml), 72 h
  growth inhibitory effect (cell viability): did not occur
[3]; L3-1Y/IgG2 antibody alone (negative control siRNA)
  cancer cell growth inhibitory efficacy (cell viability): did not occur
[4]
  cancer cell growth inhibitory effect (cell viability): did not occur
